Assay: soluble on expression in E. coli; label from the status in PepcDB or PDB records

Sequence | soluble on expression in E. coli
MVDRVIEMAIQQQPMTEPVGIPVIILKEGTQRSYGREALRANIMAVRAIAQILKTTYGPKGMDKMLVDSLGDITITNNGATILDKMDVAHPAAKMLVQISKGQEDEAGDGTKTTVIFAGELLKEAEKLLDINIHPTIIVEGYKEALRKASEVIESIAEPVSYDDVEKLKLIAKTSLNSKAVAEARDYFAELAVEAVRTVAERRGDRWYVDLNNIQIVKKHGGSLRDTRLVRGIVLDKEVVHPDMPRRVENARIALLDTPLEIEKPEIDLEISITSPEQIKALYEKQERILQEKIEKIAATGANVVITQKGIDDVAQHFLAKKGILAVRRVKRSDIEKIARATGARIVTDIEDLRPEDLGYAELVEERKVGEDKMVFIEGAKNPKSVTILLRGGFERLVDEAERSLHDALSVVADAIMDGKIVAGGGAVEAEVAKVLYEYASKLPGKTQLAVEAFARAVEALPQALAHNAGHDPIEVLVKLRSAHEKPENKWYGVDLDTGEIVDMWSRGVLEPMRVKLNALKAATEVASLILRIDDVIAARKEEEEKEEKRGGEEE | soluble
MGSDKIHHHHHHMDKKSSVSPLPTKALSDDKNSPITVWHIGGEDIRLRIPLLLKLREKGFNVGAVGSEDGNAFADNQIPYFRYTLERGINPWADIYTRSQLSALFRQHQPDIVHSFDTKPAMIAPIVAMKTGIPGRVRTITGMGYVFSSTSTLALALRPIYRHLQRQAAIATGITIFQNPDDREYFCKHKMVLDGRDDLVLGSGIDVEGLMKNSAEPEKLAATRRELGLEGQLVVTMISRLVISKGVREYLQVASIVCQQMKNVTFLLIGSVSSEGGQAIPIQEIHQQAGVVRYLGPRNDIPTLLNLSDVFVLPSYYREGVPRVLLEAATMELPLITTDMPGCKEVVKDGWNGLLVPPRDTKALATAILKLLNSPEQRNLMGKRSRVHVQTNFSLNQVADAYADIYNRVLKLPKTLK | not soluble
MSLAPRLKLRDITFFERPVQFARPFRFGAITMNATTQLFVRVEIEVEGRGSAVGASAELLVPKWFDKRPEFSPAQTVDGLRRSLEIARGLYLARTGFLTAFDLHAACIGAQIATCAKKNIPALAAAYGLAEIDKAILDALLRGVETGFFDGMAGNVAGIDARLSPDLKDAEIAAFLSSRKPLPRVAIRHTVGLDDTVEGKGGVADAHENAGASYFKLKLSGDPAADAARLARIGKELDTLGRSYKVTLDANEQYADLAALQALMDRLDHDSDLRPIASRLLYVEQPMPRDITRQSPLGSLAARGFIIDEADDSYDAFPAARALGYHGISSKSCKGLYKSIVSATRAAKWSGGGEKFFVTGEDLTCQAGLAVQQDLAMGAFLGVTHAERNGHHYVDGFGDTPAAEAAAFAAAHPDLYADAGQGIRLSIHDGDLLTGSLHAAGFATSVHPDWSALRPLEQPTSLQEQLAEGHHHHHH | not soluble
MAFEMAPADPTLDLNMQLTKLGHGLLSGKYSMPATQKDATTGDPRQEGIPPRMFKNVIAASHAEFSSMRQQDALDFFLHLVGKVERASNTTPDLDPSRSFKFGIEEKILCPSGKVGYNKREDCILSLNIPLHEATNKDELEAFHKQKAGKGLEENDMRSSDEIVRPRVPLEACLANFASSEPIEDYYSSALKGMTTAIKTTGLTSFPDYLVLHMRKFVMEEGWVPKKLDVYIDVPDVIDISHMRSKGLQPGEELLPDGVPEEVMESAQPVANEEIVAQLVSMGFSQLHCQKAAINTSNAGVEEAMNWLLSHMDDPDIDAPISHQTSDIDQSSVDTLLSFGFAEDVARKALKASGGDIEKATDWVFNNPNASVSDMDVSSSNSAQTPAQSGLPDGGGKYKLFGIVSHMGTSVHCGHYVAHILKEGRWVIFNDDKVGISTDPPKDMGYVYFFQRLD | soluble
MKTHKTKNDLPSNAKSTVIGILNESLASVIDLALVTKQAHWNLKGPQFIAVHELLDTFRTQLDNHGDTIAERVVQLGGTALGSLQAVSSTTKLKAYPTDIYKIHDHLDALIERYGEVANMIRKAIDDSDEAGDPTTADIFTAASRDLDKSLWFLEAHVQEKS | soluble
MNYRDLTLRERQVLGIIIQSYVVSAMPVGSRTIARNYNLGLSDATIRNVMADLEADGFISQPHTSAGRVPTDKGYRYYVDLIMNVSRIDEEEKRMIDDRFSNRNSELKGTSAEVLGTAARVLGSISRQLAVVLPPRLSNAVFERLDIVQLASSRIMVVIAIQSLFVKTIVMELNAEISRQKIDAVVDVLNERLPGLTLEEIRSTIAQRLSDFKGSEELMNSIVSSADTLFDESSILEQLYVSGTENIVDQPEFKQPEKVRDIITMIEDKFGMARLVDNAVPSALRQVSECEVAISIGTENRTGKAADLTIVSSPYFAGKMIGRVGVMGPKRMNYEHAVRVVNYMAGCLSEALSGNN | not soluble
MSTNFEKHFQENVDECTLEQLRDILVNKSGKTVLANRFRALFNLKTVAEEFATKPEEAKKAIEYIAESFVNDKSELLKHEVAYVLGQTKNLDAAPTLRHVMLDQNQEPMVRHEAAEALGALGDKDSLDDLNKAAKEDPHVAVRETCELAINRINWTHGGAKDKENLQQSLYSSIDPAPPLPLEKDATIPELQALLNDPKQPLFQRYRAMFRLRDIGTDEAILALATGFSAESSLFKHEIAYVFGQIGSPAAVPSLIEVLGRKEEAPMVRHEAAEALGAIASPEVVDVLKSYLNDEVDVVRESCIVALDMYDYENSNELEYAPTAN | soluble
AHHHHHHGSAKLKEPIIAINFKTYIEATGKRALEIAKAAEKVYKETGVTIVVAPQLVDLRMIAESVEIPVFAQHIDPIKPGSHTGHVLPEAVKEAGAVGTLLNHSENRMILADLEAAIRRAEEVGLMTMVCSNNPAVSAAVAALNPDYVAVEPPELIGTGIPVSKAKPEVITNTVELVKKVNPEVKVLCGAGISTGEDVKKAIELGTVGVLLASGVTKAKDPEKAIWDLVSGIIKE | soluble
SKKVYAFDVQEQALGKTSQRLSDLGIENTELILDGHENLDHYVREPIRAAIFNLGYLPSADKSVITKPHTTLEAIEKILDRLEVGGRLAIMIYYGHDGGDMEKDAVLEYVIGLDQRVFTAMLYQPLNQINTPPFLVMLEKLQ | not soluble
MIDHTHLRLFQFCDSQFPTGAFSHSFGLETYIQRNIIHDDHTFIAWLKMFLQEQLTYSDGLAMRLVYDALENDDTQKVLHIDKLMFVQNLPKETRVGAKQMGTRMVKLALELYNSPWIAWYHQQMQDKKAKLNPAICFTMLGHHLGVDIETIIDYYLYQNVSSLTQNAVRAIPLGQTAGQKIVTHMIPYIEGTRKQIFELKEADFGMTAPGLELNQMAHENVNVRIFISLEHHHHHH | not soluble
MGSDKIHHHHHHGPASGRVEMKGESDSLSVRHGQENALSVSDEYPEGYVPVPGIRYQANYLTGNPERLDVKAALRNVRPLKLSQLGSQLDFMVFKDVKGGIFRLIPIEEGCLGVGIGGIWLLDGNLKMIRMLFRNDVDITEENGFTNFQTKRYINPDYYEKSSRTLIGVLYDQRDKKNPKSFVRLSLKDLLSASRPLTPDDIHKRAGISGNYLLGMADGYATWTRFTNDVYTFNLRGDTLCHFTIGEKVNYPPRGNGSYRSGEQATVYHYKGCPMIIMPYGNTVYRMKDASTLEPVYELDFGTLHRATGEEVVGGADVDNAYFLSDWVETDSYVFMHVEKGYDCPYARDKKQVTLYSLIYDKRSKAFFSLPQAEKTVHPCPEPDLPDGIPFWPRKGFSEEQLATFTTGWKLSKSSPEVFKRIPALQGTEKETTSLIITLK | not soluble
MACHELSALRIAIGELLEKEAHDLLHEREELAPVLGQRPELKRLAEAKTLPALEEALREALLHLEERAAQEPEEPYWRGLLLAVEAMEGRLKALRAEAEALYQDLDALHGRLHRLFPRRR | soluble
MSLNRYLAAPEIKANETLVIADRYAYFNIPSWKGAGVAVPVFSLKSEKSFGVGDFGDLKRMVDWAVSTNQKVVQILPINDTTMTHTWTDSYPYNSISIYAFHPMYADLKQMGNLKDKETAAAFNRKQKELNALSAIDYEAVNRVKWEYFHQIFKQEGEKVLASKAFRSFFEANKDWLQPYAAFSYLRDLYHTPNFREWPQYSEYNAQEIEELCRPDTADYAHIAIYFYIQFNLHLQLLEATTYAREHGVVLKGDIPIGISRNSVEAWTEPYYFNLNGQAGAPPDDFSINGQNWGFPTYNWDVMENDGYKWWMKRFQKMAEYFDAYRIDHILGFFRIWEIPMNAVHGLLGQFVPALPMSREEIESYGLSFREEFLRPYIHEYFLGQVFGPHTDYVKQTFIEPTETYEVYRMRPEFDTQRKVEAFFAGKNDEDSIWVRDGLYALISDVLFVPDRKDPNLYHPRIGVQHDFIYRALNDWEKTAFNRLYDQYYYHRHNDFWQQQAMKKLPQLTQSTRMLVCGEDLGMIPDCVAWVMNDLRILSLEIQRMPKNPAEEFGRLNEYPYRSVCTFSTHDMSTLRGWWEEDYQQTQRYYNQMLGHYGTAPAIATPELCEEIVRNHLYSNSILCILSLQDWLSMDGKWRNPNVQEERINIPANPRHYWRYRMHLTLEQLMKAESLNEKIRELVKQTGRNEGHHHHHH | soluble
ELIEPEPRPLIITPSVIELPILRRRDIYMEVANVSIGRAADALARHFDVFVQLPLPNVNIFEVSELHMALRDLASHDNVSGVCQGFCGEGIAGEALVILSDSSVSDLKKLMKVPADSEELEELELLMDISNILVGSFLNGLGEQSEVRFFQSPPVLLGQHISIDSIIESTTGAFKRTMTFEVSYNIEGTSIRCDLLFMFVDESLPLLDNKLAYLMEEF | not soluble
GPLGSGDVQVTEDAVRRYLTRKPMTTKDLLKKFQTKKTGLSSEQTVNVLAQILKRLNPERKMINDKMHFSLKE | soluble
MPKLTIEGAGTFDVKEGTKLVLAIEDSGVNILHRCGGNARCTTCRVEILAGDFCEASANEKHAMTEKGIEDHLRLSCQMRVHKDIVVRPVLTVENSGLDAGPRPAE | not soluble
MPGAMHDEPDHPELSITVPTLNEAEGLERFFAMLSAQQGVRFELVIADGGSTDGTPESARRLAAATPFAATVIETGRGRGRQMNAGAAAAAGDTLLFLHADCAFPDPLALRTALDAFTQTVAAGGSHRVAGHFRLRFERTDSAPSLPYYFYEWKARLHRPGCTHGDQGLLLGRRFFAEAGPFDESFPILEDVGLAERIAALGEWLLLPAEIVTSARRFEAEGLRERQTLNALLMNFAAMGWDPFLAELPRLYQSQDRAGRLLLGPVLRLIARLLRPLPRRERGRLWRETGRYVRANAWQIPFFLDVRRHFRQGTPVGEGETPRLDLHDRIFDRLTENGAGHRATALLVWIWFRLSLLREPLTPPAARNPEGNGSLEHHHHHH | soluble
EDRPSKAPSFWYKIDPSHTQGYRTVQLVWKTLPPFEANGKILDYEVTLTRWKSHLQNYTVNATKLTVNLTNDRYLATLTVRNLVGKSDAAVLTIPACDFQATHPVMDLKAFPKDNMLWVEWTTPRESVKKYILEWCVLSDKAPCITDWQQEDGTVHRTYLRGNLAESKCYLITVTPVYADGPGSPESIKAYLKQAPPSKGPTVRTKKVGKNEAVLEWDQLPVDVQNGFIRNYTIFYRTIIGNETAVNVDSSHTEYTLSSLTSDTLYMVRMAAYTDEGGKDGPEFTFTTPK | soluble
MQTSIISAQSLSKLVSTNQEHLTILKQVNLSIQAGESVAIVGASGAGKSTLMTLLAGLDTPSEGEVYLLGKPLSQLDDEARAALRSESVGFVFQSFLLIPSLSALENVTLPCLLKGEAEDRERAQKLLKAVGLEHRMHHSPAQLSGGEQQRVAIARAFMISPQVLFADEPTGNLDQETAAKVIDLLFELNREHGTTLVLVTHDPKLAQRCQRRFFMQAGELEERV | not soluble
SSYADFVWFLISEEDKRNPTSIEYWFRCMDVDGDGILSMYELEYFYEEQCERMEAMGIEPLPFHDLLCQMLDLVKPASDGRITLRDLKRCRMAHIFYDTFFNLEKYLDHEQRDPFAVQKDVENDGPEPSDWDRFAAEEYEALVTEESAQVQLQEGSFEDYESDEPVSPSELGNKGNKIVTSSLSEKCGKLQSVDEE | soluble

Source: the DeepSol protein solubility set
